Results reported in US20230250190A1 (published 2023).
Positions count from the first letter of the chain named.

T1: T11 (Tn-MUC1) (PAPGSTAPPAHGVT(α-GalNAc)SAPDT(α-GalNAc)RPAPG-OH)
T1 peptide: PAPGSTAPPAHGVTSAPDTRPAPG

T2: T9 (Tn-MUC1) (PAPGSTAPPAHGVT(α-GalNAc)S(α-GalNAc)APDTRPAPG-OH)
T2 peptide: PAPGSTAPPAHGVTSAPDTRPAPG

T3: T4 (Tn-MUC1) (PAPGSTAPPAHGVT(α-GalNAc)SAPDTRPAPG-OH)
T3 peptide: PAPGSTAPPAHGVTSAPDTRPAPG

T4: T8 (Tn-MUC1) (PAPGST(α-GalNAc)APPAHGVTSAPDT(α-GalNAc)RPAPG-OH)
T4 peptide: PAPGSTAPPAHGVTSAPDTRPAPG

B1: 154 (antibody, V domains shown)
VH: QVQLVQSGAEVKKSGASVKVSCKASGYIFTSYYIQWVRQAPGQGLEWMGVINPFDGSTDYAQKFQGRVTVTRDTSTTTVFMELSSLRSEDTAVYYCARDNMLGYVLFDYWGQGTLVTVSS
B2: 70 (antibody, V domains shown)
VH: QVQLVQSGAEVKKPGASVKVSCKASGYAFPNYYIHWVRQAPGQGLEWMGVINPYGGSTNYAQKFQGRVTMTRGTSTSTVYLELSSLRSEDTAVYYCARDAMKGDSFFDYWGQGTLVTVSS
B3: 66 (antibody, V domains shown)
VH: QVQLVQSGAEVKKPGASVRVSCKASGYTFTNYYIHWVRQAPGHGLTWMGVINPFDSSTDYAQKFQGRVTMTRDTSTSTVYMDLSSLRSEDTAVYYCARDYMRGHVVFDYWGQGTLVTVSS
B4: 94 (antibody, V domains shown)
VH: B3 VH with A16S, R19K, T30N, N31S, H43Q, S56G, H104Y, Q112R
B5: 126 (antibody, V domains shown)
VH: QVQLVQSGAEVKKPGASVKVSCKASGYTFNRYYLHWVRQAPGQGLEWMGVINPYDGSTNYAQKFRGRVTMTRDTSTNTVYMELSSLRSEDTAVYFCARDAMEGDSYFDNWGQGTTVTVSS
B6: 166 (antibody, V domains shown)
VH: B5 VH with Q6E, L34I, Y54S, V68I, T78I, E102G, T115L
B7: 202 (antibody, V domains shown)
VH: QVQLVQSGAEVKNPGASVKFSCKASGYTFINYYLQWLRQAPGQGLEWMGTINPFDGSTSYAQNFQGRVTMTRDTSSTTVYMELNSLKSEDTAVYYCARDSMIGYVLFDSWGQGTLVTVSS
B8: 118 (antibody, V domains shown)
VH: QVQLVQSGAEVKKPGASVKVSCKASGYTFTNYYIQWVRQAPGQGLEWMGVINPYDGSTNYAQRFQGKITLTRDTSTTTVYMELSSLGSEDTAVYYCARDYMIGYVVFDYWGQGTMVTVSS
B9: 110 (antibody, V domains shown)
VH: B8 VH with V11M, Q35H, R63K, K67R, I68V, G87R, Y109F, M115L
B10: 114 (antibody, V domains shown)
VH: B8 VH with V11M, K19T, K67R, I68V, S75T, Y80N, S85G, G87R, Y109F, M115L
B11: 53 (antibody, V domains shown)
VH: QVQLVQSGAEVKKPGASMTVSCKTSGYTFISYYIHWLRQAPGQGLEWLGVINPFGGATNYAQKFQGRVTMTRDTSTITVYMELSSLRSEDTAVYYCARDAMGGDSHFDFWGQGTLVTVSS

Biological target: T1, T11 (Tn-MUC1)
Test: glycopeptide array

B1 and B2 are within 1.5-fold of each other in EC50: 0.196 µg/mL for the first, 0.161 µg/mL for the second.

Going from B3 to B4, the EC50 falls from 0.138 µg/mL to 0.04 µg/mL (3.5-fold).

Going from B5 to B6, the EC50 rises from 0.195 µg/mL to 1.68 µg/mL (8.6-fold).

B7 and B8 are within 1.5-fold of each other in EC50: 0.142 µg/mL for the first, 0.143 µg/mL for the second.

Going from B9 to B10, the EC50 falls from 0.164 µg/mL to 0.09 µg/mL (1.8-fold).

B11 showed an EC50 of 0.131 µg/mL.

Biological target: T2, T9 (Tn-MUC1)
Test: glycopeptide array

B1 and B2 are within 1.5-fold of each other in EC50: 0.106 µg/mL for the first, 0.151 µg/mL for the second.

Going from B3 to B4, the EC50 falls from 0.123 µg/mL to 0.033 µg/mL (3.7-fold).

First: B5
Second: B6
The EC50 of the first is 1.6-fold higher: 0.153 µg/mL for the first, 0.095 µg/mL for the second.

B7 and B8 are within 1.5-fold of each other in EC50: 0.119 µg/mL for the first, 0.102 µg/mL for the second.

Going from B9 to B10, the EC50 falls from 0.139 µg/mL to 0.076 µg/mL (1.8-fold).

B11 gave an EC50 of 0.126 µg/mL.

Biological target: T3, T4 (Tn-MUC1)
Test: glycopeptide array

B1 and B2 are within 1.5-fold of each other in EC50: 0.13 µg/mL for the first, 0.127 µg/mL for the second.

First: B3
Second: B4
The EC50 of the first is 3.2-fold higher: 0.11 µg/mL for the first, 0.034 µg/mL for the second.

B5 and B6 are within 1.5-fold of each other in EC50: 0.143 µg/mL for the first, 0.108 µg/mL for the second.

B7 and B8 are within 1.5-fold of each other in EC50: 0.104 µg/mL for the first, 0.097 µg/mL for the second.

B9 and B10 are within 1.5-fold of each other in EC50: 0.127 µg/mL for the first, 0.087 µg/mL for the second.

B11 gave an EC50 of 0.112 µg/mL.

Biological target: T4, T8 (Tn-MUC1)
Test: glycopeptide array

B1 and B2 are within 1.5-fold of each other in EC50: 0.162 µg/mL for the first, 0.149 µg/mL for the second.

Going from B3 to B4, the EC50 falls from 0.123 µg/mL to 0.033 µg/mL (3.7-fold).

Going from B5 to B6, the EC50 rises from 0.168 µg/mL to 1.85 µg/mL (11-fold).

B7 and B8 are within 1.5-fold of each other in EC50: 0.125 µg/mL for the first, 0.142 µg/mL for the second.

Going from B9 to B10, the EC50 falls from 0.153 µg/mL to 0.085 µg/mL (1.8-fold).

Work on B11 yielded an EC50 of 0.122 µg/mL.
